Measured values from patent publication US20200255529A1 (PIONYR IMMUNOTHERAPEUTICS, published 2020).
Like-named read-outs stand apart in the source and are kept apart here. Each block holds one binder with its values, some of them ahead of it.

Experiments:
[1] = target: T1, Fc-tagged recombinant mouse TREM1 (R&D systems #1187-TR) (mouse, UniProt Q9JKE2 21-202); assay: MSD ligand binding PK assay, plate coated with Fc-tagged recombinant mouse TREM1
T1 construct: Bought reagent; not shown: Fc tag
T1 sequence: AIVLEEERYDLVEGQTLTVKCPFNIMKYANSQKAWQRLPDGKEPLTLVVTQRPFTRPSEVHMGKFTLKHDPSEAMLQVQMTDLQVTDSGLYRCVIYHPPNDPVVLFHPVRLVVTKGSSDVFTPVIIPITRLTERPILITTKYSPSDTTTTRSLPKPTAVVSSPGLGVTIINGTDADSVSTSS
Experimental: A 96-well high-binding MSD plate was coated with Fc-tagged recombinant mouse TREM1 (R&D systems #1187-TR). After blocking, samples were added to the plate which bound the TREM1 protein. […] ECL signal was produced by the secondary antibody after the plate received an electric signal from an MSD plate reader. The ECL signal was detected and quantified by the plate reader.

[2] = target: T2, hCD16 on NFAT-luciferase reporter Jurkat cells (Promega) (human, UniProt P08637 17-254); assay: cell-based or functional assay
[3] = target: T3, cynomolgus TREM1 on cells (cynomolgus, UniProt A0A2K5VHG8 21-233); assay: flow cytometry on HEK293 cells over-expressing cynomolgus TREM1
T3 construct: whole, on cells; Used for HEK293 cells over-expressing cynomolgus TREM1 and for primary cynomolgus monocytes; also called cynoTREM1; Cyno TREM1 cells
T3 sequence: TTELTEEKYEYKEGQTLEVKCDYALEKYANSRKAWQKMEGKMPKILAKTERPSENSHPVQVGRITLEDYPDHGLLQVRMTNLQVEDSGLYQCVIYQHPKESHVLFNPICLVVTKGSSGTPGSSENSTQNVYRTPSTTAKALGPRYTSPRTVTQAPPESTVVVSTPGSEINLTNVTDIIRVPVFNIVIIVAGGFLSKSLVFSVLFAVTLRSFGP

[4] = target: T4, Chimeric cynomolgus TREM1-mIgG Fc (cynomolgus, UniProt A0A2K5VHG8 21-204); assay: SPR (Biacore T200), avid format: cynomolgus TREM1-mIgG Fc captured, antibody as analyte
T4 construct: not shown: mouse IgG Fc
T4 sequence: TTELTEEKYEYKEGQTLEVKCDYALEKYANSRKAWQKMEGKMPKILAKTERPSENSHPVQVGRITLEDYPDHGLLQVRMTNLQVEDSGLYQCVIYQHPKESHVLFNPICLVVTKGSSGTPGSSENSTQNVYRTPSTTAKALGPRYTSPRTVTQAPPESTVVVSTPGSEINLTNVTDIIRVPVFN
Experimental: All data were collected at 25° C. 10 mM HEPES pH 7.4, 150 mM NaCl, 3 mM EDTA, 0.05% (v/V) surfactant P20 was used as mobile buffer and for all dilution of mAbs. Anti-mouse Fc was immobilized on a CM4 biosensor chip (GE Healthcare) using amine coupling chemistry. Chimeric cynomolgus TREM1-mIgG Fc was captured on one flow cell and another flow cell (used as reference surface) was left blank. […] After each cycle, the surface was regenerated by injecting a glycine HCl buffer (10 mM, pH 2.0). BIAevaluation software was used to perform the kinetic evaluation. Kinetic evaluation was through generation of sensorgrams which were fitted with a 1:1 Langmuir binding model.

[5] = target: T2, hCD16 on NFAT-luciferase reporter …; assay: cell-based or functional assay; remark: listed apart in the source
[6] = target: T3, cynomolgus TREM1 on cells; assay: flow cytometry on HEK293 cells over-expressing cynomolgus TREM1; remark: listed apart in the source
[7] = target: T5, mouse TREM1 on HEK293 cells (mouse, UniProt Q9JKE2 21-230); assay: flow cytometry on HEK293 cells over-expressing mouse TREM1, Alexa 647 anti-human Fcγ secondary antibody
T5 construct: also called mTREM1; mouse TREM1 over-expressing cells
T5 sequence: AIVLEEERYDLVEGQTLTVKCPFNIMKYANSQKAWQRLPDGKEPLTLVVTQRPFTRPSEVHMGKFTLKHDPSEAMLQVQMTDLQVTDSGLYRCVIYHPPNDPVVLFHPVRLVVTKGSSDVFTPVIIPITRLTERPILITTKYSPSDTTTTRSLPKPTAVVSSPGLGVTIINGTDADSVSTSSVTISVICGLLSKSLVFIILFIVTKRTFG
Experimental: (§1) HEK293 over-expressing cynomolgus or mouse TREM1 in log phase growth were harvested from culture, washed, and plated in 96 well U bottom plates at 1×10⁵ cells/well. […] An Alexa 647-conjugated anti-human Fcγ secondary antibody (Jackson Immunoresearch) diluted at 1:500 was used to detect bound primary antibody. The secondary antibody was incubated with the cells for 30 mins on ice. […] Fluorescence signal from bound antibody was assessed by flow cytometry (ThermoFisher Attune NxT). EC50 values were calculated in Prism Software (Graphpad).

[8] = target: T2, hCD16 on NFAT-luciferase reporter …; assay: cell-based or functional assay; remark: listed apart in the source
[9] = target: T3, cynomolgus TREM1 on cells; assay: flow cytometry on cynomolgus peripheral blood monocytes, experiment 1
Experimental: (§2) Fresh cynomolgus monkey blood (Worldwide Primates Inc) was red cell lysed and washed to enrich PBMC and granulocyte content. Cells were plated and Fc receptors were blocked with a combination of human serum (Jackson Immunoresearch) and a peptide-based FcR block solution (Innovex Biosciences). […] All antibodies used were directly conjugated and data was acquired by flow cytometry (ThermoFisher Attune NxT). EC50 values were calculated in Prism Software (Graphpad).

[10] = target: T3, cynomolgus TREM1 on cells; assay: flow cytometry on cynomolgus peripheral blood monocytes, experiment 2
Experimental: as §2

[11] = target: T3, cynomolgus TREM1 on cells; assay: flow cytometry on HEK293 cells over-expressing cynomolgus TREM1, experiment 1
Experimental: as §1, with “HEK293 cells” for “HEK293”, “cynomolgus” for “cynomolgus or mouse”

[12] = target: T3, cynomolgus TREM1 on cells; assay: flow cytometry on HEK293 cells over-expressing cynomolgus TREM1, experiment 2
Experimental: as §1, with “HEK293 cells” for “HEK293”, “cynomolgus” for “cynomolgus or mouse”

[13] = target: T3, cynomolgus TREM1 on cells; assay: flow cytometry on HEK293 cells over-expressing cynomolgus TREM1, experiment 3
Experimental: as §1, with “HEK293 cells” for “HEK293”, “cynomolgus” for “cynomolgus or mouse”

[14] = target: T4, Chimeric cynomolgus TREM1-mIgG Fc; assay: SPR (Biacore T200), avid format: cynomolgus TREM1-mIgG Fc captured, antibody as analyte; remark: listed apart in the source
[15] = target: T6, recombinant human His-tagged FcγRI (human, UniProt P12314 16-288); assay: ELISA on plates coated with 1 ug/ml His-tagged human FcγRI (CD64), detection with HRP-conjugated anti-human F(ab')2
T6 construct: also called hFcγRI; not shown: His tag
Experimental: 1 ug/ml of the indicated recombinant human His-tagged FcγR proteins (Sino Biologicals) were coated on MaxiSorp plates overnight at 4° c. […] Fc-mediated binding of the antibodies to the coated FcγR proteins was detected with a HRP-conjugated Fab′2 fragment against the Fab′2 portion of human IgG (Jackson Immunoresearch). TMB substrate (ThermoFisher) was used to quantitate the amount of HRP-conjugated secondary reagent bound to primary antibodies and H₃PO₄ was used to stop the reaction. Absorbance at 450 nm was measured using the Spectramax plate reader ([…]).

[16] = target: T3, cynomolgus TREM1 on cells; assay: flow cytometry on HEK293 cells over-expressing cynomolgus TREM1; cells overexpressing cynomolgus TREM1; EC50 about 12-fold weaker than parent (4.61 nM); background binding Y
[17] = target: T3, cynomolgus TREM1 on cells; assay: flow cytometry on HEK293 cells over-expressing cynomolgus TREM1; cells overexpressing cynomolgus TREM1; EC50 about 6-fold weaker than parent (4.61 nM)

T6 sequence (P12314 16-288 limits assumed): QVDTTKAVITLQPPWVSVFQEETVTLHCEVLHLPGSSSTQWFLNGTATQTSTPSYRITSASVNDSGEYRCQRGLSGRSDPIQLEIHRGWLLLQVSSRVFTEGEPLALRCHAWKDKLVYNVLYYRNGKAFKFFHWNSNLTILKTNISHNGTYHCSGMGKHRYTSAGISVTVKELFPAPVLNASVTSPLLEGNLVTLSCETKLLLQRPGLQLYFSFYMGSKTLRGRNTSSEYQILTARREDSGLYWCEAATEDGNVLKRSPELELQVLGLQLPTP
T2 sequence (P08637 17-254 F176V): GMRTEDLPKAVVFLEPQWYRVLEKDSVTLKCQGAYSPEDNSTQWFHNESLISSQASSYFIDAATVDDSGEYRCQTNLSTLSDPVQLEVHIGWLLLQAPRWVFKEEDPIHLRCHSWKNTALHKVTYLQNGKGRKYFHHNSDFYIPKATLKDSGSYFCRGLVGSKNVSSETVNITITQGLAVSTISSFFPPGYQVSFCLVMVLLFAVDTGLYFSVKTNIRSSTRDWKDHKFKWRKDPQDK

binding result [1]: binds
B1: afucosylated PI-4928 anti-TREM1 antibody (antibody, mouse IgG2a, kappa, V domains shown)
VH: QVQLKESGPGLVQPSQTLSLTCTVSGFSITSSNVYWFRQPPGKGLEWMGNIWGDGSTDYNSSLKSRLTLSRDTSKNQVFLKINSLQSEDTATYFCTRSWEYYFDHWGQGVVVTVSS
VL: DIVLTQSPALAVSPGQRATLSCRASQSVTLSNVNLMNWYQQKPGQQPKLLIYHASNLASGIPTRFSGSGSGTDFTLTIDPVQADDIAAYYCQQSGESPRTFGGGTKVELKR
modifications: afucosylated
notes: Anti-mouse TREM1 surrogate, mIgG2a

hCD16 ADCC assay EC50 [2]: 0.36 nM
EC50 [3]: 6.61 nM
Kd [4]: 2.99 nM
B2: afucosylated PI-4026-5-M100 (parent) (antibody, human IgG1, kappa)
heavy: not shown
light: DIQLTQSPSSLSASVGDRVTITCSASSSVSYMHWYQQKPGKAPKLLLYTTSNLASGVPSRFSGSGSGTDYTLTISSLQPEDFATYYCHQWSGYPTFGQGTKLEIKRTVAAPSVFIFPPSDEQLKSGTASVVCLLNNFYPREAKVQWKVDNALQSGNSQESVTEQDSKDSTYSLSSTLTLSKADYEKHKVYACEVTHQGLSSPVTKSFNRGEC
modifications: afucosylated Fc glycan (made in FUT8-deficient expi293 cells)

hCD16 ADCC assay EC50 [5]: 2.54 nM
EC50 [6]: 4.61 nM
Kd [4]: 1.76 nM
binding result [7]: no binding (tested: 6 ug/ml)
B3: PI-4026-5 (antibody, human IgG1, kappa)
heavy: not shown
light: B2 light
notes: fucosylated form made in expi293 cells

hCD16 ADCC assay EC50 [2]: 0.28 nM
hCD16 reporter assay EC50 (nM), experiment 1 [8]: 0.09 nM
hCD16 reporter assay EC50 (nM), experiment 2 [8]: 0.28 nM
hCD16 reporter assay EC50 (nM), experiment 3 [8]: 0.11 nM
EC50 [3]: 3.62 nM
EC50 [9]: 7.84 nM
EC50 [10]: 7.16 nM
EC50 [11]: 3.62 nM
EC50 [12]: 4.67 nM
EC50 [13]: 42.8 nM
Kd [4]: 1.41 nM
Kd [14]: 1.41 nM
binding result [15]: binds
B4: PI64052 (afucosylated PI-4026-5-M100L) (antibody, human IgG1, kappa)
heavy: not shown
light: B2 light
modifications: afucosylated Fc glycan (made in FUT8-deficient expi293 cells)

hCD16 ADCC assay EC50 [5]: 5.86 nM
EC50 [6]: 4.85 nM
Kd [4]: 1.43 nM
binding result [15]: binds
B5: PI-4026-5-M100L (fucosylated) (antibody, human IgG1, kappa)
heavy: not shown
light: B2 light
notes: hIgG1, fucosylated; also called fucosylated parent of PI64052

hCD16 ADCC assay EC50 [2]: 0.39 nM
EC50 [3]: 22 nM
Kd [4]: 13.4 nM
B6: afucosylated PI-4026-5-M100I (antibody, human IgG1, kappa)
heavy: not shown
light: B2 light
modifications: afucosylated Fc glycan (made in FUT8-deficient expi293 cells)

hCD16 ADCC assay EC50 [2]: 0.33 nM
EC50 [3]: 56 nM
Kd [4]: 8.66 nM
B7: afucosylated PI-4026-5-M100E (antibody, human IgG1, kappa)
heavy: not shown
light: B2 light
modifications: afucosylated Fc glycan (made in FUT8-deficient expi293 cells)

hCD16 ADCC assay EC50 [5]: 3.18 nM
Kd [4]: 6.19 nM
EC50 [16]: 58 nM
B8: PI-4026-5-M100E (fucosylated) (antibody, human IgG1, kappa)
heavy: not shown
light: B2 light

hCD16 ADCC assay EC50 [2]: 0.29 nM
hCD16 reporter assay EC50 (nM), experiment 1 [8]: 0.08 nM
hCD16 reporter assay EC50 (nM), experiment 2 [8]: 0.29 nM
hCD16 reporter assay EC50 (nM), experiment 3 [8]: 0.09 nM
EC50 [3]: 2.07 nM
EC50 [9]: 7.94 nM
EC50 [10]: 7.84 nM
EC50 [11]: 2.07 nM
EC50 [12]: 3.25 nM
EC50 [13]: 7.89 nM
Kd [4]: 0.45 nM
Kd [14]: 0.45 nM
binding result [15]: binds
B9: PI64062 (afucosylated PI-4026-5-M100Q) (antibody, human IgG1, kappa)
heavy: not shown
light: B2 light
modifications: afucosylated Fc glycan (made in FUT8-deficient expi293 cells)

hCD16 ADCC assay EC50 [5]: 8.6 nM
EC50 [6]: 6.04 nM
Kd [4]: 0.66 nM
binding result [15]: binds
B10: PI-4026-5-M100Q (fucosylated) (antibody, human IgG1, kappa)
heavy: not shown
light: B2 light
notes: hIgG1, fucosylated; also called fucosylated parent of PI64062

hCD16 ADCC assay EC50 [5]: 6.92 nM
Kd [4]: 11.8 nM
EC50 [17]: 28.6 nM
B11: PI-4026-5-M100I (fucosylated) (antibody, human IgG1, kappa)
heavy: not shown
light: B2 light
